Legend:
BVMOXeno = system: T1, BVMOXeno; assay: steady-state kinetics, NADPH consumption; type: biochemical, Paraburkholderia xenovorans; conditions: co-substrates NADPH and O2; 50 mM Tris-HCl, pH 8, 25 °C
T1 construct: gene BVMO_Xeno; purified enzyme, recombinant (E. coli); tag details only in supplement
Description: steady-state kinetics, NADPH consumption on BVMOXeno

O=C1CCCCC1 = assay: purified protein; conditions: co-substrates NADPH and O2, 50 mM Tris-HCl, pH 8, 25 °C

Row | Compound | Km (BVMOXeno) [µM] | Km (O=C1CCCCC1) [µM] | kcat (O=C1CCCCC1) [s⁻¹] | kcat/Km (O=C1CCCCC1) [M⁻¹ s⁻¹]
1 | O=C1CCCCC1 [1a, cyclohexanone] | 22.7 ± 5 | – | – | –
2 | CHMOAcineto (Acinetobacter johnsonii) | – | 266.6 ± 25.5 | 4.54 ± 0.095 | 17000 ± 1670

Source: PMC8751089, “Photobiocatalytic Oxyfunctionalization with High Reaction Rate using a Baeyer–Villiger Monooxygenase from Burkholderia xenovorans in Metabolically Engineered Cyanobacteria” (ACS Catalysis, 2021)
